Laboratory results reported in PMC4660254.

Molecular target: Mud C-terminal coiled-coil domain (Mud^CC) (Drosophila)
Test: SEC

stoichiometry N: 3
Substance: Mud C-terminal coiled-coil domain (Mud^CC) (domain or fragment)
